Data set [1] deals with the molecule itself. In words: SEC; Superdex 200 10/300, 50 mM MES pH 7.0, 100 mM NaCl, 2 mM DTT, 1 mM EDTA; single peak at ~13 mL, ~160 kDa. On the technique in general: In gel filtration, larger molecules generally elute earlier.
The target in data set [2] is rabbit skeletal muscle actin (filamentous, Mg-ATP-actin polymerised) (rabbit, UniProt P68135 1-377). In words: co-sedimentation. The conditions noted are these: both partners purified.

For orientation: stoichiometry N means the number of molecules, sites or subunits per partner or assembly. As a reminder, the Kd is a measure of binding affinity in units of concentration.

B1: His-PfAldolase (Plasmodium falciparum fructose 1,6 bisphosphate aldolase) (enzyme, UniProt Q7KQL9 1-369, looked up)
chain: MAHCTEYMNAPKKLPADVAEELATTAQKLVQAGKGILAADESTQTIKKRFDNIKLENTIENRASYRDLLFGTKGLGKFISGAILFEETLFQKNEAGVPMVNLLHNENIIPGIKVDKGLVNIPCTDEEKSTQGLDGLAERCKEYYKAGARFAKWRTVLVIDTAKGKPTDLSIHETAWGLARYASICQQNRLVPIVEPEILADGPHSIEVCAVVTQKVLSCVFKALQENGVLLEGALLKPNMVTAGYECTAKTTTQDVGFLTVRTLRRTVPPALPGVVFLSGGQSEEEASVNLNSINALGPHPWALTFSYGRALQASVLNTWQGKKENVAKAREVLLQRAEANSLATYGKYKGGAGGENAGASLYEKKYVY
notes: Detected by anti-His Western blot in the sedimentation assay; source: E. coli BL21 (DE3), purified (IMAC, cation exchange, SEC); not shown: His6, N-terminal, kept
As for B1, the “stoichiometry N” value in data set [1] was about 4.

B2: PfCoronin 1-388 (N-terminal beta-propeller domain of Plasmodium falciparum coronin) (domain or fragment)
chain: MYNVPLIKNLYPDPSNNLYGDLRICSRATETCGIACSAGYIAVPWQVEGGGMIGVIRLENQVRNPPVIKLKSHTSPILDLSFNPCYSEILASCSEDMSIRIWEIRHEDENVNEVKDPLCILNGHKKKVNILSWNPMNYFILSSTSFDSSVNIWDIENEKKAFEINMPKKLSSLQWDIGGNLLSGTCQNKQIHIIDPRKQEICNSFLIHDGGKSTKCIWIDGFGGEDKCILTTGFSKNNMRELKLWSLKNTTSPLTTITLDNAASPLLPHYDESVGMIYLIGKGDGNCRYYQYSQGSIRKVDEYKSCLPFRSFGFLPKRMCDVYKCEIGRVYKNENNTDIRPISFYVPRKNSSIFQEDLYPPIIMRDPERSTNKWIDGINLDIKRVSIK
Consider B2, for which binding in data set [2] was characterised by a dissociation constant (Kd) of 956 nM.
